The text below walks through data of article PMC6557989, “The Molecular Basis of Human IgG-Mediated Enhancement of C4b-Binding Protein Recruitment to Group A Streptococcus” (Frontiers in Immunology, 2019).

This experiment deals with T1, Protein H (Streptococcus pyogenes (strain AP1), ^125I-labelled in the plate binding assay; Alexa-488 succinimidyl ester-labelled in thermophoresis; unlabelled elsewhere).
T1 construct: Protein H, surface protein of the M protein family of Streptococcus pyogenes AP1; recombinant; theoretical mass of the monomer 42 kDa; written as the single chain because its self-association is itself measured; also called ^125I-Protein H; source: E. coli, expressed and purified (previously described protocols)
T1 chain: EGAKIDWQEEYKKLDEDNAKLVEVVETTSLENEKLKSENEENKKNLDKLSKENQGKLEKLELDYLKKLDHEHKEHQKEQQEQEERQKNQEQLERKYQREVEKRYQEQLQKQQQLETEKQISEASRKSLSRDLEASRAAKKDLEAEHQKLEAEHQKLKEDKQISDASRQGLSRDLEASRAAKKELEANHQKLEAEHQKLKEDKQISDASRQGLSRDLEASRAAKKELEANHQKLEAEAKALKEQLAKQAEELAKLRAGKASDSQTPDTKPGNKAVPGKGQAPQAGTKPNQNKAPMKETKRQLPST
The experiment is described as follows: native gel or EMSA; native horizontal agarose gel, 75 mM sodium barbital pH 8.6, Coomassie blue; two proteins pre-incubated in PBS 1 h at 37°C (ratios as C4BP:IgG:Protein H 1:10:10). The conditions noted are these: both partners purified.

B1: Denosumab (monoclonal human IgG2) (antibody, V domains shown)
VH: EVQLLESGGGLVQPGGSLRLSCAASGFTFSSYAMSWVRQAPGKGLEWVSGITGSGGSTYYADSVKGRFTISRDNSKNTLYLQMNSLRAEDTAVYYCAKDPGTTVIMSWFDPWGQGTLVTVSS
VL: EIVLTQSPGTLSLSPGERATLSCRASQSVRGRYLAWYQQKPGQAPRLLIYGASSRATGIPDRFSGSGSGTDFTLTISRLEPEDFAVFYCQQYGSSPRTFGQGTKVEIK
notes: constant region of the human IgG2 heavy chain; it is here the ligand of Protein H through its Fc; Recombinantly expressed drug antibody; also called hu-IgG2; source: bought: Amgen
On to B1, for which the binding result was “binds”.
